Data taken from patent US20190352420A1 (Boehringer Ingelheim, published 2019).

T1: non-cell-bound CD73 (human, UniProt P21589 27-549, limits assumed)
T1 sequence (looked up): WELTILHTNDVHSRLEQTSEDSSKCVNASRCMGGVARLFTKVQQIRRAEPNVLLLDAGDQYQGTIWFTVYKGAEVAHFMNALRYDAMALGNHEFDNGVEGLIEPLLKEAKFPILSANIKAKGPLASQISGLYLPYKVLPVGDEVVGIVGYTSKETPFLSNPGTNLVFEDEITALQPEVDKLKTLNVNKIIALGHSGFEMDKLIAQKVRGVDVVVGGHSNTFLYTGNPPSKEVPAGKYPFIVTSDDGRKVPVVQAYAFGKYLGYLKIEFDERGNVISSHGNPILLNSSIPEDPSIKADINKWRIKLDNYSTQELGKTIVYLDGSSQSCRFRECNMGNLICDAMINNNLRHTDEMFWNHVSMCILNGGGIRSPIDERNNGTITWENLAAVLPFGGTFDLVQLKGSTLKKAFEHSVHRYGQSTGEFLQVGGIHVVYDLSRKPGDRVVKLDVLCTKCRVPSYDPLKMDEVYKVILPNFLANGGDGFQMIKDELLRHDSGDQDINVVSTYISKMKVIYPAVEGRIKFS

T2: cell-bound CD73 (human, UniProt P21589 27-549)
T2 sequence (looked up): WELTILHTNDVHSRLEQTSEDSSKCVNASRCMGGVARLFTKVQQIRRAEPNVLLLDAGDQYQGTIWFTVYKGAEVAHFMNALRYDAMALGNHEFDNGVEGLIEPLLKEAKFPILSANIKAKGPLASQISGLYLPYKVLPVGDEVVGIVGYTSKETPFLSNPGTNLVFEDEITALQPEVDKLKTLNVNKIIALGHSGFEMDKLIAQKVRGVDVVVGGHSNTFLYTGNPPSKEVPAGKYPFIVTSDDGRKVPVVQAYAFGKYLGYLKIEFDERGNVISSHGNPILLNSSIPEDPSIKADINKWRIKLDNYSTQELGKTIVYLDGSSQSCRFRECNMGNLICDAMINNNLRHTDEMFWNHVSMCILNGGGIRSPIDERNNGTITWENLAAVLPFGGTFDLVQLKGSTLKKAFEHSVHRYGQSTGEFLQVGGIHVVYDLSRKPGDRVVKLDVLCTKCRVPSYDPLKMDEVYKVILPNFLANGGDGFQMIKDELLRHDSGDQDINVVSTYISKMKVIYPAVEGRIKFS

T3: mouse CD73 (mouse, UniProt Q61503 29-551, limits assumed)
T3 construct: also called murine CD73
T3 sequence (looked up): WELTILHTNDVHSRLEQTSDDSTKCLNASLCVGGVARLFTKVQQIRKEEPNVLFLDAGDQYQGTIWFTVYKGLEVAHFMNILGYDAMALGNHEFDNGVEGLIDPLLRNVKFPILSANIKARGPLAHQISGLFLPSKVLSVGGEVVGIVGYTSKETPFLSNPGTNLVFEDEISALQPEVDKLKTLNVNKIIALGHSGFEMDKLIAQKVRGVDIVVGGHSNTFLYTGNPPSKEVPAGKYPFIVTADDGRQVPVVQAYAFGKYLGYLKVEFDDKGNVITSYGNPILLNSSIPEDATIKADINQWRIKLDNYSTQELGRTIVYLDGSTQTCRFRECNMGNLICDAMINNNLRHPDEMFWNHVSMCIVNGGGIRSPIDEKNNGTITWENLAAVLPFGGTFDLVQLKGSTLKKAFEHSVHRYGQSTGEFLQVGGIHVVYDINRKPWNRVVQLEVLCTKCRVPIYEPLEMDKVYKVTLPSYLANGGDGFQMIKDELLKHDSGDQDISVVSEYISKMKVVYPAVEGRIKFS

T4: human CD73-His (human, UniProt P21589 27-549)
T4 construct: extracellular domain; The SPR analyte is only called 'human CD73-His' (non-covalent dimeric antigen); also called HuCD73 His tagged; HuCD73his20170303
T4 sequence: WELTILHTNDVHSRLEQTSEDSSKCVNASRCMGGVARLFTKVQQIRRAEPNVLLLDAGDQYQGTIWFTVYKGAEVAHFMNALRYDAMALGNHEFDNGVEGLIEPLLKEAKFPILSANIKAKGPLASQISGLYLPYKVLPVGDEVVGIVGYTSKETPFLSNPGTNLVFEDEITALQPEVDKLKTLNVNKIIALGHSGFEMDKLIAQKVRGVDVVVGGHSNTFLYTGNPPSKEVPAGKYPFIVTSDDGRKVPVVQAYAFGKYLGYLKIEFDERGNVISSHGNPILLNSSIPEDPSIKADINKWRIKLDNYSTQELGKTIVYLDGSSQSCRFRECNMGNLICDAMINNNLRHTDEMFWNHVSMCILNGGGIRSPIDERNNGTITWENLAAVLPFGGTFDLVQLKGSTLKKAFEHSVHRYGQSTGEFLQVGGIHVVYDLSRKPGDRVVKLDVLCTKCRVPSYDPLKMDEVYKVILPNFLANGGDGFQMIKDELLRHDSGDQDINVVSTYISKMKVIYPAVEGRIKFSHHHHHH

T5: recombinant human CD73 protein (human, UniProt P21589 27-549, limits assumed)
T5 sequence (looked up): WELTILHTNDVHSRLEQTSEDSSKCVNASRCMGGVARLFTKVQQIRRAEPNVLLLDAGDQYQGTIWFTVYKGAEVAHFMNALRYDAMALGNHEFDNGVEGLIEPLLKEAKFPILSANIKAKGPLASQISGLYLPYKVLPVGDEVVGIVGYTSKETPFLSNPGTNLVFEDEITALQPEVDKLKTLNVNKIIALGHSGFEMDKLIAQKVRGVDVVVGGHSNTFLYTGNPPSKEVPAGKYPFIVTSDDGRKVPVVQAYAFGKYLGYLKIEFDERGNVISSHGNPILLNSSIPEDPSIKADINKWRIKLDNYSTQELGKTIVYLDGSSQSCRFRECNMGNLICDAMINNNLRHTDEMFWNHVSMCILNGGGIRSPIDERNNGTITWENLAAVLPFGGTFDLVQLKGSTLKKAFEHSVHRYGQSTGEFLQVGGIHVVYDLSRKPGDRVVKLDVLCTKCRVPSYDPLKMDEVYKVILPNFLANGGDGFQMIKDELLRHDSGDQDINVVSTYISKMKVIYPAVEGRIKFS

B1: C3 (antibody, human IgG1, kappa, L234A L235A, V domains shown)
VH: QVQLVQSGAEVKKPGDSVKVSCKASGYTFTTYWMHWVRQAPGQGLEWMGAIYPGLSDTTYSQKFKGKVTMTRDTSTSTVYMKLSSLRSEDTAVYYCARLLDYAMDYWGQGTLVTVSS
VL: DIQMTQSPSSLSASVGDRVTITCRASQDIRSYLNWHQQKPGKAPKLLIWYTSRLHSGVPSRFSGSGSGTDYTLTISSLQPEDFATYFCQQGETLPWTFGQGTKLEIKR
notes: Humanized monoclonal antibody; also called anti-CD73 antibody C3
B2: C6 (antibody, human IgG1, kappa, L234A L235A, V domains shown)
VH: QVQLVQSGAEVKKPGDSVKVSCKASGYTFTTYWMHWVRQAPGQGLEWMGAIYPGNSDTTYNQKFKGKVTMTRDTSTSTVYMKLSSLRSEDTAVYYCARLLDYAMDYWGQGTLVTVSS
VL: DIQMTQSPSSLSASVGDRVTITCRASQDIRNYLNWHQQKPGKAPKLLIWYTSRLHSGVPSRFSGSGSGTDYTLTISSLQPEDFATYFCQQGNTLPWTFGQGTKLEIKR
notes: Humanized monoclonal antibody; also called anti-CD73 antibody C6
B3: C5 (antibody, human IgG1, kappa, L234A L235A, V domains shown)
VH: QVQLVQSGAEVKKPGDSVKVSCKASGYTFTTYWMHWVRQAPGQGLEWMGAIYPGNSDTTYNQKFKGKVTMTRDTSTSTVYMKLSSLRSEDTAVYYCARLLDYAMDYWGQGTLVTVSS
VL: DIQMTQSPSSLSASVGDRVTITCRASQDIRSYLNWHQQKPGKAPKLLIWYTSRLHSGVPSRFSGSGSGTDYTLTISSLEPEDFATYFCQQGETLPWTFGQGTKLEIKR
notes: Humanized monoclonal antibody; also called anti-CD73 antibody C5
B4: C4 (antibody, human IgG1, kappa, L234A L235A, V domains shown)
VH: QVQLVQSGAEVKKPGDSVKVSCKASGYTFTTYWMHWVRQAPGQGLEWMGAIYPGLSDTTYNQKFKGKVTMTRDTSTSTVYMKLSSLRSEDTAVYYCARLLDYAMDYWGQGTLVTVSS
VL: DIQMTQSPSSLSASVGDRVTITCRASQDIRSYLNWHQQKPGKAPKLLIWYTSRLHSGVPSRFSGSGSGTDYTLTISSLQPEDFATYFCQQGETLPWTFGQGTKLEIKR
notes: Humanized monoclonal antibody; also called C04; inventive anti-CD73 antibody C4

How the values were obtained:
non-cell-bound CD73 = biological target: T1, non-cell-bound CD73; test: cell-based or functional assay
cell-bound CD73 [1] = biological target: T2, cell-bound CD73; test: cell-based or functional assay
mouse CD73 = biological target: T3, mouse CD73; test: SPR, mouse CD73 compared with human CD73 (reference)
cell-bound CD73 [2] = biological target: T2, cell-bound CD73; test: cell-based or functional assay; remark: listed apart in the source
human CD73-His = biological target: T4, human CD73-His; test: SPR (ProteOn XPR36), antibody captured on Protein A/G, dimeric human CD73-His as analyte, avidity format, 1:1 Langmuir fit
Method: For the avidity format, the experiment was performed on a Bio-Rad ProteOn XPR36 instrument. Antibodies were captured via Protein A/G and the non-covalent dimeric antigens were flowed over the captured surface. The running buffer for this experiment and all dilutions were prepared in PBS-T-EDTA. The GLM sensor chip was normalized and pre-conditioned as per the manufacturer's recommendations. The sensor chip was activated with an equal mixture of EDC/s-NHS in the horizontal direction for 300 s at a flow rate of 30 μL/min and immobilized with recombinant Protein A/G (50 μg/ml in 10 mM acetate pH 4.5) in the horizontal direction for 300 s at a flow rate of 30 μL/min resulting in about 5000 RU of Protein A/G on the surface. The sensor chip was deactivated with 1M ethanolamine-HCl in the horizontal direction for 300 s at a flow rate of 30 μL/min. The sensor chip was regenerated with 18 s of 0.85% phosphoric acid at a flow rate of 100 μL/min 2 times horizontally and 2 times vertically.
About 300 RU of antibody was captured on the Protein A/G surface vertically for 60 s at a flow rate of 30 μL/min. The capture surface was stabilized by injecting PBS-T-EDTA for 60 s at a flowrate of 100 μL/min horizontally. The analyte (human CD73-His) was injected horizontally over the captured antibody for 600 s at a flow rate of 30 μL/min with a dissociation of 1200 s. The concentrations of human CD73-His were 0 nM, 3.125 nM, 6.25 nM, 12.5 nM, 25 nM and 50 nM. The surface was regenerated by injecting 0.85% phosphoric acid for 18 s at a flow rate of 100 μL/min one time horizontally and one time vertically.
The interspot (interactions with sensor surface) and blank (PBS-T-EDTA or 0 nM analyte) were subtracted from the raw data.

cell-bound CD73 [3] = biological target: T2, cell-bound CD73; test: cell-based or functional assay; remark: listed apart in the source
cell-bound CD73 [4] = biological target: T2, cell-bound CD73; test: cell-based or functional assay; remark: listed apart in the source
[5] = biological target: T5, recombinant human CD73 protein; test: cell-based or functional assay
cell-bound CD73 [6] = biological target: T2, cell-bound CD73; test: cell-based or functional assay; remark: listed apart in the source

Binder | % of max. adenosine inhibition, Colo-201 culture supernatant (non-cell-bound CD73) | CD73 surface reduction [%] on Colo201 cells, 24 h, flow cytometry (cell-bound CD73 [1]) | fold higher binding to human CD73 than to mouse CD73 (mouse CD73) | CD8 T cell proliferation [% of control], Donor A, 1 nM antibody (cell-bound CD73 [2]) | CD8 T cell proliferation [% of control], Donor B, 1 nM antibody (cell-bound CD73 [2]) | CD8 T cell proliferation [% of control], Donor C, 1 nM antibody (cell-bound CD73 [2]) | CD8 T cell proliferation [% of control], Donor D, 1 nM antibody (cell-bound CD73 [2]) | CD8 T cell proliferation [% of control], Donor E, 1 nM antibody (cell-bound CD73 [2]) | CD8 T cell proliferation [% of control], Donor F, 1 nM antibody (cell-bound CD73 [2]) | Kd (human CD73-His) | Max. adenosine inhibition [%] in Colo201 cells (cell-bound CD73 [3]) | % of max. adenosine inhibition, washed Colo-201 cells (cell-bound CD73 [4]) | IC90 of inhibition of CD73 enzymatic function (luciferase-based assay) [5] | IFNγ release [fold change over control], Donor A, 1 nM antibody (cell-bound CD73 [6]) | IFNγ release [fold change over control], Donor B, 1 nM antibody (cell-bound CD73 [6]) | IFNγ release [fold change over control], Donor C, 1 nM antibody (cell-bound CD73 [6]) | IFNγ release [fold change over control], Donor D, 1 nM antibody (cell-bound CD73 [6]) | IFNγ release [fold change over control], Donor E, 1 nM antibody (cell-bound CD73 [6]) | IFNγ release [fold change over control], Donor F, 1 nM antibody (cell-bound CD73 [6])
B1 | 82% | 16% | 117 fold | 103% | 80.2% | 116% | 99.3% | 101% | 91.3% | 0.072 nM | 88% | 81% | 0.32 nM | 19.9 fold | 7.7 fold | 31.9 fold | 19 fold | 14.2 fold | 6.7 fold
B2 | 78% | 19% | 58 fold | 102% | 65.4% | 88.3% | 99.6% | 100% | 91.1% | 0.096 nM | 88% | 81% | 0.24 nM | 24.3 fold | 12.9 fold | 55.5 fold | 25.8 fold | 14 fold | 10.3 fold
B3 | 80% | 19% | 163 fold | 103% | 80.3% | 101% | 99.3% | 100% | 86% | 0.049 nM | 87% | 82% | 0.29 nM | 24.5 fold | 11.3 fold | 59.3 fold | 22.9 fold | 12.4 fold | 5.8 fold
B4 | 81% | 15% | 120 fold | 104% | 70.3% | 111% | 98.5% | 100% | 92.6% | 0.074 nM | 88% | 82% | 0.24 nM | 20.2 fold | 8.7 fold | 35.2 fold | 13.7 fold | 14.1 fold | 7.1 fold
